Our source for the stoichiometry N values is article PMC6110258.

Assay [1] deals with H5-Strep-tag (Strep-tag II-fused haemagglutinin H5 ectodomain of A/duck/Viet Nam/TG24-01/2005 (H5N1) (influenza A virus A/duck/Viet Nam/TG24-01/2005 (H5N1) | not stated)). Nature of the assay: cross-linking.
Assay [2] has the same target. Description: SEC.

In the case of “H5-Strep-tag (Strep-tag II-fused haemagglutinin H5 ectodomain of A/duck/Viet Nam/TG24-01/2005 (H5N1)”, the stoichiometry N in assay [1] and in assay [2] was 3 in each case.
